# According to patent publication US20170165339A1 (IMMATICS BIOTECHNOLOGIES, published 2017):
# Biological target: HLA-A*02 (human)
# Test: UV peptide-exchange ELISA, yield grade
row,Binder,peptide exchange yield
1,FIFDEAEKL [FIFDEAEKL (SEQ ID NO: 82)],< 20%
2,GQASYFYVA [GQASYFYVA (SEQ ID NO: 83)],20 to 49%
3,ALCPRIHEV [ALCPRIHEV (SEQ ID NO: 84)],≥ 75%
4,VLNDILVRA [VLNDILVRA (SEQ ID NO: 85)],50 to 75%
5,SVDSHFQEV [SVDSHFQEV (SEQ ID NO: 86)],20 to 49%
6,TIYKDFVYI [TIYKDFVYI (SEQ ID NO: 87)],20 to 49%
7,AQADHLPQL [AQADHLPQL (SEQ ID NO: 88)],20 to 49%
8,QLAPVFQRV [QLAPVFQRV (SEQ ID NO: 89)],20 to 49%
9,FLQDLEQRL [FLQDLEQRL (SEQ ID NO: 90)],50 to 75%
10,GLLFSLRSV [GLLFSLRSV (SEQ ID NO: 92)],≥ 75%
11,LLLPAVPVGA [LLLPAVPVGA (SEQ ID NO: 94)],50 to 75%
12,GLLGSLFFL [GLLGSLFFL (SEQ ID NO: 95)],≥ 75%
13,LLVSHLYLV [LLVSHLYLV (SEQ ID NO: 96)],20 to 49%
14,RLFPDFFTRVAL [RLFPDFFTRVAL (SEQ ID NO: 98)],20 to 49%
15,YLLQSVNQLLL [YLLQSVNQLLL (SEQ ID NO: 99)],20 to 49%
16,ALLGMIIVGV [ALLGMIIVGV (SEQ ID NO: 100)],< 20%
17,ALADFMLSL [ALADFMLSL (SEQ ID NO: 101)],50 to 75%
18,VLLDIQEVFQI [VLLDIQEVFQI (SEQ ID NO: 102)],50 to 75%
19,YLVSEIFKA [YLVSEIFKA (SEQ ID NO: 103)],50 to 75%
20,ALISWQPPRA [ALISWQPPRA (SEQ ID NO: 104)],50 to 75%
21,ALLGTKILL [ALLGTKILL (SEQ ID NO: 105)],50 to 75%
22,FINDSIVYL [FINDSIVYL (SEQ ID NO: 106)],50 to 75%
23,LLVPTSGIYFV [LLVPTSGIYFV (SEQ ID NO: 107)],50 to 75%
24,ILLKNLVTI [ILLKNLVTI (SEQ ID NO: 108)],20 to 49%
25,SLDPSVTHL [SLDPSVTHL (SEQ ID NO: 109)],20 to 49%

row,Binder,peptide exchange yield
1,FLLGVSKEV [FLLGVSKEV (SEQ ID NO: 110)],50 to 75%
2,AIVDLIHDI [AIVDLIHDI (SEQ ID NO: 111)],20 to 49%
3,SLGKFTFDV [SLGKFTFDV (SEQ ID NO: 112)],≥ 75%
4,FLERGLESA [FLERGLESA (SEQ ID NO: 113)],20 to 49%
5,QLIQTLHAV [QLIQTLHAV (SEQ ID NO: 114)],50 to 75%
6,SLDPDTLPAV [SLDPDTLPAV (SEQ ID NO: 115)],20 to 49%
7,KMPDVELFV [KMPDVELFV (SEQ ID NO: 117)],50 to 75%
8,QLWQFLVTL [QLWQFLVTL (SEQ ID NO: 118)],50 to 75%
9,FIIQGLRSVGA [FIIQGLRSVGA (SEQ ID NO: 119)],50 to 75%
10,VTPVTVSAV [VTPVTVSAV (SEQ ID NO: 120)],< 20%
11,FTIFRTISV [FTIFRTISV (SEQ ID NO: 121)],50 to 75%
12,GVVDPVHGV [GVVDPVHGV (SEQ ID NO: 122)],20 to 49%
13,VLDPALPALV [VLDPALPALV (SEQ ID NO: 123)],20 to 49%
14,KVMATIEKV [KVMATIEKV (SEQ ID NO: 124)],20 to 49%
15,SLADYEHFV [SLADYEHFV (SEQ ID NO: 125)],≥ 75%
16,QMFQYFITV [QMFQYFITV (SEQ ID NO: 126)],≥ 75%
17,KLDGNELDL [KLDGNELDL (SEQ ID NO: 127)],50 to 75%
18,TQSPATLSV [TQSPATLSV (SEQ ID NO: 128)],20 to 49%
19,RLQDILWFL [RLQDILWFL (SEQ ID NO: 129)],≥ 75%
20,SLLGGTFVGI [SLLGGTFVGI (SEQ ID NO: 130)],50 to 75%
21,VTSNSGILGV [VTSNSGILGV (SEQ ID NO: 131)],50 to 75%
22,ILGEVLAQL [ILGEVLAQL (SEQ ID NO: 132)],50 to 75%
23,ALLPRLHQL [ALLPRLHQL (SEQ ID NO: 133)],≥ 75%
24,GLAVPTPSV [GLAVPTPSV (SEQ ID NO: 134)],50 to 75%
25,HLSTIIHEA [HLSTIIHEA (SEQ ID NO: 135)],50 to 75%

row,Binder,peptide exchange yield
1,FLFGGVLMTL [FLFGGVLMTL (SEQ ID NO: 136)],20 to 49%
2,ALLAKILQI [ALLAKILQI (SEQ ID NO: 138)],50 to 75%
3,FLLPTGAEA [FLLPTGAEA (SEQ ID NO: 139)],20 to 49%
4,FLDKVLVAA [FLDKVLVAA (SEQ ID NO: 141)],50 to 75%
5,ILVEGISTV [ILVEGISTV (SEQ ID NO: 142)],50 to 75%
6,ALLPELREV [ALLPELREV (SEQ ID NO: 143)],50 to 75%
7,ALLAFFPGL [ALLAFFPGL (SEQ ID NO: 144)],50 to 75%
8,YLWATIQRI [YLWATIQRI (SEQ ID NO: 145)],50 to 75%
9,ALHFSEDEI [ALHFSEDEI (SEQ ID NO: 146)],20 to 49%
10,YLMDDTVEI [YLMDDTVEI (SEQ ID NO: 147)],≥ 75%
11,MLAGIAITV [MLAGIAITV (SEQ ID NO: 148)],50 to 75%
12,ILNTHITEL [ILNTHITEL (SEQ ID NO: 149)],50 to 75%
13,VLYDRPLKI [VLYDRPLKI (SEQ ID NO: 150)],50 to 75%
14,SVLDSTAKV [SVLDSTAKV (SEQ ID NO: 151)],20 to 49%
15,MMVGDLLEV [MMVGDLLEV (SEQ ID NO: 152)],50 to 75%
16,FISERVEVV [FISERVEVV (SEQ ID NO: 153)],≥ 75%
17,RLLGTEFQV [RLLGTEFQV (SEQ ID NO: 154)],50 to 75%
18,LLNPVVEFV [LLNPVVEFV (SEQ ID NO: 155)],50 to 75%
19,ILGDLSHLL [ILGDLSHLL (SEQ ID NO: 156)],50 to 75%
20,TLTSLLAQA [TLTSLLAQA (SEQ ID NO: 157)],50 to 75%
21,AILAHLNTV [AILAHLNTV (SEQ ID NO: 229)],≥ 75%
22,KLQNIMMLL [KLQNIMMLL (SEQ ID NO: 230)],20 to 49%
23,MLDKYSHYL [MLDKYSHYL (SEQ ID NO: 231)],50 to 75%
24,KIFPAALQLV [KIFPAALQLV (SEQ ID NO: 232)],50 to 75%
25,HLFDAFVSV [HLFDAFVSV (SEQ ID NO: 233)],50 to 75%
